# T1: APBA1_1, Q02410
# T1 sequence (Q02410 651-752, limits assumed, looked up): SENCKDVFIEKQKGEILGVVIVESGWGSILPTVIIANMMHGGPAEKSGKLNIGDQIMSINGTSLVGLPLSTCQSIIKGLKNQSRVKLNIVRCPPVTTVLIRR
# T2: APBA1_2, Q02410
# T2 sequence (Q02410 742-832, limits assumed, looked up): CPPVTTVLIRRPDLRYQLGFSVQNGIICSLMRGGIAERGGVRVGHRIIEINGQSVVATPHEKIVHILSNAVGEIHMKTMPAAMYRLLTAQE
# T3: ARHGAP21, Q5T5U3
# T3 sequence (Q5T5U3 45-169, limits assumed, looked up): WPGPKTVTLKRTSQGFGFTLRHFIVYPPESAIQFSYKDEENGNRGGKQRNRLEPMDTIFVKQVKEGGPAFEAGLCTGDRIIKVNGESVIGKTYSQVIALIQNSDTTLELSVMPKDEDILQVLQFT
# T4: DLG3_3, Q92796
# T4 sequence (Q92796 374-475, limits assumed, looked up): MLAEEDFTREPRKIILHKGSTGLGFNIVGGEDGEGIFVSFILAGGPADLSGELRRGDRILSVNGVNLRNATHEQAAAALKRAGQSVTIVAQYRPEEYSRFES
# T5: MPDZ_10, O75970
# T5 sequence (O75970 1624-1722, limits assumed, looked up): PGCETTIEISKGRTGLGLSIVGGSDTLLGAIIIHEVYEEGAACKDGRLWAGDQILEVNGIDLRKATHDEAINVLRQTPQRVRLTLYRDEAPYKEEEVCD
# T6: MPDZ_5, O75970
# T6 sequence (O75970 695-796, limits assumed, looked up): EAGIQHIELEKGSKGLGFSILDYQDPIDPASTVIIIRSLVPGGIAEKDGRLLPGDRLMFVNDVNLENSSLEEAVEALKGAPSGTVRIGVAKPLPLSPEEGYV
# T7: MPP7, Q5T2T1
# T7 sequence (Q5T2T1 134-230, limits assumed, looked up): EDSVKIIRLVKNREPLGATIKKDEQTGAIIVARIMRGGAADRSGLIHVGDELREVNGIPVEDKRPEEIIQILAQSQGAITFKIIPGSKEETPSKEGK
# T8: NHERF3_1, Q5T2W1
# T8 sequence (Q5T2W1 4-100, limits assumed, looked up): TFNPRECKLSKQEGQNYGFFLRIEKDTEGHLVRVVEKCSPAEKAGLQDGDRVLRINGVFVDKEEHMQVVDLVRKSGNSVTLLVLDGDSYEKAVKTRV
# T9: PDZD2_2, O15018
# T9 sequence (O15018 329-429, limits assumed, looked up): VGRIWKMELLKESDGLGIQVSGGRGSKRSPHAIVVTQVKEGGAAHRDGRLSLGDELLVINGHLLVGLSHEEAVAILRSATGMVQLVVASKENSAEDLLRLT
# T10: TX1BP3, O14907
# T10 sequence (O14907 10-122, limits assumed, looked up): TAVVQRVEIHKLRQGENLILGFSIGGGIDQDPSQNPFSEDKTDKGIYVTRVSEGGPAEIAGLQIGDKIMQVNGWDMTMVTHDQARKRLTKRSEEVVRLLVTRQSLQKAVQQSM
# Target: T1, APBA1_1, Q02410
# Experiment: holdup assay
# Set-up: key: below the threshold = too weak to quantify, mostly under pKd 3.1 to 4
# Settings: plain residues with an end cap or a label only (N-terminal biotin on a linker: ado-ado)
row,pKd,Binder
1,below the threshold,"DTKNYKQTSV [CRIPT, Q9P021]"
2,below the threshold,"SRSVVESDEL [MYPN, Q86TC9]"

# Target: T2, APBA1_2, Q02410
# Experiment: holdup assay
# Set-up: key: below the threshold = too weak to quantify, mostly under pKd 3.1 to 4
# Settings: plain residues with an end cap or a label only (N-terminal biotin on a linker: ado-ado)
row,pKd,Binder
1,3.73,"DTKNYKQTSV [CRIPT, Q9P021]"
2,below the threshold,"SRSVVESDEL [MYPN, Q86TC9]"

# Target: T3, ARHGAP21, Q5T5U3
# Experiment: holdup assay
# Set-up: key: below the threshold = too weak to quantify, mostly under pKd 3.1 to 4
# Settings: plain residues with an end cap or a label only (N-terminal biotin on a linker: ado-ado)
row,pKd,Binder
1,3.75,"DTKNYKQTSV [CRIPT, Q9P021]"
2,3.51,"SRSVVESDEL [MYPN, Q86TC9]"

# Target: T4, DLG3_3, Q92796
# Experiment: holdup assay
# Set-up: key: below the threshold = too weak to quantify, mostly under pKd 3.1 to 4
# Settings: plain residues with an end cap or a label only (N-terminal biotin on a linker: ado-ado)
row,pKd,Binder
1,5.16,"DTKNYKQTSV [CRIPT, Q9P021]"
2,below the threshold,"SRSVVESDEL [MYPN, Q86TC9]"

# Target: DLG4_1, P78352
# Sequence (P78352 62-152): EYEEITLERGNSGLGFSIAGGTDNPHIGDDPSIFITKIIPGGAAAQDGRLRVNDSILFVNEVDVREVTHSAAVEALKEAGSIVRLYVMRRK
# Experiment: holdup assay
# Set-up: key: below the threshold = too weak to quantify, mostly under pKd 3.1 to 4
# Settings: plain residues with an end cap or a label only (N-terminal biotin on a linker: ado-ado)
row,pKd,Binder
1,4.37,"DTKNYKQTSV [CRIPT, Q9P021]"
2,below the threshold,"SRSVVESDEL [MYPN, Q86TC9]"

# Target: GRID2IP_2, A4D2P6
# Sequence (A4D2P6 272-370): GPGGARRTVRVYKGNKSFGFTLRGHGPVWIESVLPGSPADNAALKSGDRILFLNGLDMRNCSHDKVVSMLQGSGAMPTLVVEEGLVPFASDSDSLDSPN
# Experiment: holdup assay
# Set-up: key: below the threshold = too weak to quantify, mostly under pKd 3.1 to 4
# Settings: plain residues with an end cap or a label only (N-terminal biotin on a linker: ado-ado)
row,pKd,Binder
1,4.39,"DTKNYKQTSV [CRIPT, Q9P021]"
2,below the threshold,"SRSVVESDEL [MYPN, Q86TC9]"

# Target: GRIP2_3, Q9C0E4
# Sequence (Q9C0E4 238-339): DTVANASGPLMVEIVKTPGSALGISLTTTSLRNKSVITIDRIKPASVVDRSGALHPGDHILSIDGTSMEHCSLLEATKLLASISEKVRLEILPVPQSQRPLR
# Experiment: holdup assay
# Set-up: key: below the threshold = too weak to quantify, mostly under pKd 3.1 to 4
# Settings: plain residues with an end cap or a label only (N-terminal biotin on a linker: ado-ado)
row,pKd,Binder
1,below the threshold,"DTKNYKQTSV [CRIPT, Q9P021]"
2,below the threshold,"SRSVVESDEL [MYPN, Q86TC9]"

# Target: GRIP2_5, Q9C0E4
# Sequence (Q9C0E4 544-642): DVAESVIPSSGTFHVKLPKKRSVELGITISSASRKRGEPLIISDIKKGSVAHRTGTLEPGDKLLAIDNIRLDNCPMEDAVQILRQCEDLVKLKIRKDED
# Experiment: holdup assay
# Set-up: key: below the threshold = too weak to quantify, mostly under pKd 3.1 to 4
# Settings: plain residues with an end cap or a label only (N-terminal biotin on a linker: ado-ado)
row,pKd,Binder
1,below the threshold,"DTKNYKQTSV [CRIPT, Q9P021]"
2,below the threshold,"SRSVVESDEL [MYPN, Q86TC9]"

# Target: IL16_1, Q14005
# Sequence (Q14005 210-306): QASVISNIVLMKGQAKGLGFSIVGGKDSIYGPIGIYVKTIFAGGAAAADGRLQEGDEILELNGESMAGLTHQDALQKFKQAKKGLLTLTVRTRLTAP
# Experiment: holdup assay
# Set-up: key: below the threshold = too weak to quantify, mostly under pKd 3.1 to 4
# Settings: plain residues with an end cap or a label only (N-terminal biotin on a linker: ado-ado)
row,pKd,Binder
1,below the threshold,"DTKNYKQTSV [CRIPT, Q9P021]"
2,below the threshold,"SRSVVESDEL [MYPN, Q86TC9]"

# Target: Inadl_4, Q8NI35
# Sequence (Q8NI35 547-651): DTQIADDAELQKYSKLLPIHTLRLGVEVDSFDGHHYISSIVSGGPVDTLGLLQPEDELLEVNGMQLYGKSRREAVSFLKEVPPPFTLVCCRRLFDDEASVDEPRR
# Experiment: holdup assay
# Set-up: key: below the threshold = too weak to quantify, mostly under pKd 3.1 to 4
# Settings: plain residues with an end cap or a label only (N-terminal biotin on a linker: ado-ado)
row,pKd,Binder
1,below the threshold,"DTKNYKQTSV [CRIPT, Q9P021]"
2,below the threshold,"SRSVVESDEL [MYPN, Q86TC9]"

# Target: LDB3, O75112
# Sequence (O75112 1-94): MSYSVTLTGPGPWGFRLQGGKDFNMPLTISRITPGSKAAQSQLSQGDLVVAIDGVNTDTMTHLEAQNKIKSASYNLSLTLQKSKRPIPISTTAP
# Experiment: holdup assay
# Set-up: key: below the threshold = too weak to quantify, mostly under pKd 3.1 to 4
# Settings: plain residues with an end cap or a label only (N-terminal biotin on a linker: ado-ado)
row,pKd,Binder
1,below the threshold,"DTKNYKQTSV [CRIPT, Q9P021]"
2,5.06,"SRSVVESDEL [MYPN, Q86TC9]"

# Target: MAGI1_1, Q96QZ7
# Sequence (Q96QZ7 1-106): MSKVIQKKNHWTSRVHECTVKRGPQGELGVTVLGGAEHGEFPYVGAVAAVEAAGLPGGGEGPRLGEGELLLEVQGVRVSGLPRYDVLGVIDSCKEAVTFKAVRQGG
# Experiment: holdup assay
# Set-up: key: below the threshold = too weak to quantify, mostly under pKd 3.1 to 4
# Settings: plain residues with an end cap or a label only (N-terminal biotin on a linker: ado-ado)
row,pKd,Binder
1,below the threshold,"DTKNYKQTSV [CRIPT, Q9P021]"
2,3.53,"SRSVVESDEL [MYPN, Q86TC9]"

# Target: MAGI2_3, Q86UL8
# Sequence (Q86UL8 600-682): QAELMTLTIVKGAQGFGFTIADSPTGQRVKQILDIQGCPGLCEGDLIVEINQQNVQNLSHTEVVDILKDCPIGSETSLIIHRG
# Experiment: holdup assay
# Set-up: key: below the threshold = too weak to quantify, mostly under pKd 3.1 to 4
# Settings: plain residues with an end cap or a label only (N-terminal biotin on a linker: ado-ado)
row,pKd,Binder
1,3.94,"DTKNYKQTSV [CRIPT, Q9P021]"
2,below the threshold,"SRSVVESDEL [MYPN, Q86TC9]"

# Target: MAST2, Q6P0Q8
# Sequence (Q6P0Q8 1099-1202): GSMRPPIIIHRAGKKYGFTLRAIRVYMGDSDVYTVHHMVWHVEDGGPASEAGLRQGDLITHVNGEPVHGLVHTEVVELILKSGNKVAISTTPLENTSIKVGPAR
# Experiment: holdup assay
# Set-up: key: below the threshold = too weak to quantify, mostly under pKd 3.1 to 4
# Settings: plain residues with an end cap or a label only (N-terminal biotin on a linker: ado-ado)
row,pKd,Binder
1,5.35,"DTKNYKQTSV [CRIPT, Q9P021]"
2,4.46,"SRSVVESDEL [MYPN, Q86TC9]"

# Target: T5, MPDZ_10, O75970
# Experiment: holdup assay
# Set-up: key: below the threshold = too weak to quantify, mostly under pKd 3.1 to 4
# Settings: plain residues with an end cap or a label only (N-terminal biotin on a linker: ado-ado)
row,pKd,Binder
1,3.98,"DTKNYKQTSV [CRIPT, Q9P021]"
2,below the threshold,"SRSVVESDEL [MYPN, Q86TC9]"

# Target: T6, MPDZ_5, O75970
# Experiment: holdup assay
# Set-up: key: below the threshold = too weak to quantify, mostly under pKd 3.1 to 4
# Settings: plain residues with an end cap or a label only (N-terminal biotin on a linker: ado-ado)
row,pKd,Binder
1,below the threshold,"DTKNYKQTSV [CRIPT, Q9P021]"
2,below the threshold,"SRSVVESDEL [MYPN, Q86TC9]"

# Target: T7, MPP7, Q5T2T1
# Experiment: holdup assay
# Set-up: key: below the threshold = too weak to quantify, mostly under pKd 3.1 to 4
# Settings: plain residues with an end cap or a label only (N-terminal biotin on a linker: ado-ado)
row,pKd,Binder
1,below the threshold,"DTKNYKQTSV [CRIPT, Q9P021]"
2,below the threshold,"SRSVVESDEL [MYPN, Q86TC9]"

# Target: NHERF2_2, Q15599
# Sequence (Q15599 142-238): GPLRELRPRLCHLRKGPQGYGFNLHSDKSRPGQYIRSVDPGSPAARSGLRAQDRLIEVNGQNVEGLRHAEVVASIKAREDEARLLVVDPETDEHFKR
# Experiment: holdup assay
# Set-up: key: below the threshold = too weak to quantify, mostly under pKd 3.1 to 4
# Settings: plain residues with an end cap or a label only (N-terminal biotin on a linker: ado-ado)
row,pKd,Binder
1,3.73,"DTKNYKQTSV [CRIPT, Q9P021]"
2,3.86,"SRSVVESDEL [MYPN, Q86TC9]"

# Target: T8, NHERF3_1, Q5T2W1
# Experiment: holdup assay
# Set-up: key: below the threshold = too weak to quantify, mostly under pKd 3.1 to 4
# Settings: plain residues with an end cap or a label only (N-terminal biotin on a linker: ado-ado)
row,pKd,Binder
1,4.59,"DTKNYKQTSV [CRIPT, Q9P021]"
2,5.44,"SRSVVESDEL [MYPN, Q86TC9]"

# Target: NHERF4_2, Q86UT5
# Sequence (Q86UT5 220-308): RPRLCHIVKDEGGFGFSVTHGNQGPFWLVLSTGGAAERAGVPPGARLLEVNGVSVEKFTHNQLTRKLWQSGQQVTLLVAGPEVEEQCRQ
# Experiment: holdup assay
# Set-up: key: below the threshold = too weak to quantify, mostly under pKd 3.1 to 4
# Settings: plain residues with an end cap or a label only (N-terminal biotin on a linker: ado-ado)
row,pKd,Binder
1,below the threshold,"DTKNYKQTSV [CRIPT, Q9P021]"
2,below the threshold,"SRSVVESDEL [MYPN, Q86TC9]"

# Target: NHERF4_4, Q86UT5
# Sequence (Q86UT5 464-550): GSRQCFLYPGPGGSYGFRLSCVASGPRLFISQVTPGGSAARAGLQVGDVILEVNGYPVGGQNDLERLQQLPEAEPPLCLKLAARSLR
# Experiment: holdup assay
# Set-up: key: below the threshold = too weak to quantify, mostly under pKd 3.1 to 4
# Settings: plain residues with an end cap or a label only (N-terminal biotin on a linker: ado-ado)
row,pKd,Binder
1,below the threshold,"DTKNYKQTSV [CRIPT, Q9P021]"
2,below the threshold,"SRSVVESDEL [MYPN, Q86TC9]"

# Target: NOS1, P29475
# Sequence (P29475 9-101): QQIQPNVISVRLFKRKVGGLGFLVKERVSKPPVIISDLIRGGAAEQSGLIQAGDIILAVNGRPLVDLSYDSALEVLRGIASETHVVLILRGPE
# Experiment: holdup assay
# Set-up: key: below the threshold = too weak to quantify, mostly under pKd 3.1 to 4
# Settings: plain residues with an end cap or a label only (N-terminal biotin on a linker: ado-ado)
row,pKd,Binder
1,3.63,"DTKNYKQTSV [CRIPT, Q9P021]"
2,below the threshold,"SRSVVESDEL [MYPN, Q86TC9]"

# Target: PARD3_3, Q8TEW0
# Sequence (Q8TEW0 582-685): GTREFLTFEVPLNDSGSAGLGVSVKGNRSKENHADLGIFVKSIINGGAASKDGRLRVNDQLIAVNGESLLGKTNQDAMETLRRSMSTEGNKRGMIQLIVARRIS
# Experiment: holdup assay
# Set-up: key: below the threshold = too weak to quantify, mostly under pKd 3.1 to 4
# Settings: plain residues with an end cap or a label only (N-terminal biotin on a linker: ado-ado)
row,pKd,Binder
1,below the threshold,"DTKNYKQTSV [CRIPT, Q9P021]"
2,below the threshold,"SRSVVESDEL [MYPN, Q86TC9]"

# Target: T9, PDZD2_2, O15018
# Experiment: holdup assay
# Set-up: key: below the threshold = too weak to quantify, mostly under pKd 3.1 to 4
# Settings: plain residues with an end cap or a label only (N-terminal biotin on a linker: ado-ado)
row,pKd,Binder
1,4.76,"DTKNYKQTSV [CRIPT, Q9P021]"
2,below the threshold,"SRSVVESDEL [MYPN, Q86TC9]"

# Target: PICK1, Q9NRD5
# Sequence (Q9NRD5 17-115): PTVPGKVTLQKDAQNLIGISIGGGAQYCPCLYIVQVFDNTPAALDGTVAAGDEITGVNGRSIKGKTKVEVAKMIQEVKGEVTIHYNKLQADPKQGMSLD
# Experiment: holdup assay
# Set-up: key: below the threshold = too weak to quantify, mostly under pKd 3.1 to 4
# Settings: plain residues with an end cap or a label only (N-terminal biotin on a linker: ado-ado)
row,pKd,Binder
1,4.15,"DTKNYKQTSV [CRIPT, Q9P021]"
2,below the threshold,"SRSVVESDEL [MYPN, Q86TC9]"

# Target: SCRIB_2, Q14160
# Sequence (Q14160 857-960): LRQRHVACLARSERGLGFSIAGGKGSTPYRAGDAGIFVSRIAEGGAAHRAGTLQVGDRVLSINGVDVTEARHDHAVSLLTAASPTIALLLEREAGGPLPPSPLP
# Experiment: holdup assay
# Set-up: key: below the threshold = too weak to quantify, mostly under pKd 3.1 to 4
# Settings: plain residues with an end cap or a label only (N-terminal biotin on a linker: ado-ado)
row,pKd,Binder
1,4.61,"DTKNYKQTSV [CRIPT, Q9P021]"
2,below the threshold,"SRSVVESDEL [MYPN, Q86TC9]"

# Target: T10, TX1BP3, O14907
# Experiment: holdup assay
# Set-up: key: below the threshold = too weak to quantify, mostly under pKd 3.1 to 4
# Settings: plain residues with an end cap or a label only (N-terminal biotin on a linker: ado-ado)
row,pKd,Binder
1,5.4,"DTKNYKQTSV [CRIPT, Q9P021]"
2,below the threshold,"SRSVVESDEL [MYPN, Q86TC9]"

# — PMC9482650, “Quantitative fragmentomics allow affinity mapping of interactomes” (Nature Communications, 2022)
